Positions count from the first letter of the chain named. Names and notes keep the numbering of the source.
T1: human ANGPTL3 (human, UniProt Q9Y5C1 17-460)
T1 construct: Biotinylated in the ELISA assays; also called hANGPTL3; free ANGPTL3
T1 sequence: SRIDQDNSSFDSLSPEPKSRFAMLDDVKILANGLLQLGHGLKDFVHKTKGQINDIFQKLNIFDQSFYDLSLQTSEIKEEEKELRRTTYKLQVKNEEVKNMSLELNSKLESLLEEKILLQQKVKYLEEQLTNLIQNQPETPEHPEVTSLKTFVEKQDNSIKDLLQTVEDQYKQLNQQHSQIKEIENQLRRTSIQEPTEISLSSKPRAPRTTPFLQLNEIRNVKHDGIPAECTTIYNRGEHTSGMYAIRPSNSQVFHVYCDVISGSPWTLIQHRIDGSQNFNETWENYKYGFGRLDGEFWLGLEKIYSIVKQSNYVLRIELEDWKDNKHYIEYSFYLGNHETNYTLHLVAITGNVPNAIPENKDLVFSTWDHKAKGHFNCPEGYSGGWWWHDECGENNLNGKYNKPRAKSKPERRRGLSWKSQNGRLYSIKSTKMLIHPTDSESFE

T2: human ANGPTL8 (human, UniProt Q6UXH0 22-198)
T2 construct: Biotinylated in the ELISA assays; also called hANGPTL8; free ANGPTL8
T2 sequence: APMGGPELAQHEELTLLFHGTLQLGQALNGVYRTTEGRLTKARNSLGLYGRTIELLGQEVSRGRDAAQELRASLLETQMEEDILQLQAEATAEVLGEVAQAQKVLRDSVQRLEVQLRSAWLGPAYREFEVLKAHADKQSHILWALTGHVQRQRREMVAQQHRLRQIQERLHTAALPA

T3: human ANGPTL3/8 complex (human, UniProt Q9Y5C1 17-460; Q6UXH0 22-198, limits assumed)
T3 construct: also called hANGPTL3/8 complex; ANGTPL3/8 complex
T3 sequence 1: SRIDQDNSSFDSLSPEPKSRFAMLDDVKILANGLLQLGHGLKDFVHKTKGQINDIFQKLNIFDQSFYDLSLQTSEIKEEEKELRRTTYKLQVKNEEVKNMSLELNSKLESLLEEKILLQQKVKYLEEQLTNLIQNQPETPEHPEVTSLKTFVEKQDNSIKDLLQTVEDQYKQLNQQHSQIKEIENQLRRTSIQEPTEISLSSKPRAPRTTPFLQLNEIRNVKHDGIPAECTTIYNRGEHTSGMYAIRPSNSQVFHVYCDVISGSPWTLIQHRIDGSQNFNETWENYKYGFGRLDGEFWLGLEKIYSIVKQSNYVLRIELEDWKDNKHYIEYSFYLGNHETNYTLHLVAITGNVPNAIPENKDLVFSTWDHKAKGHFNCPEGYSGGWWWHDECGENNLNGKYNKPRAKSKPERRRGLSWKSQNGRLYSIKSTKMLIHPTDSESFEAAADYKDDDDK
T3 sequence 2: T2 sequence

T4: mouse ANGPTL3/8 complex (mouse, UniProt Q9R182 17-455; Q8R1L8 16-198, limits assumed)
T4 sequence (looked up) 1: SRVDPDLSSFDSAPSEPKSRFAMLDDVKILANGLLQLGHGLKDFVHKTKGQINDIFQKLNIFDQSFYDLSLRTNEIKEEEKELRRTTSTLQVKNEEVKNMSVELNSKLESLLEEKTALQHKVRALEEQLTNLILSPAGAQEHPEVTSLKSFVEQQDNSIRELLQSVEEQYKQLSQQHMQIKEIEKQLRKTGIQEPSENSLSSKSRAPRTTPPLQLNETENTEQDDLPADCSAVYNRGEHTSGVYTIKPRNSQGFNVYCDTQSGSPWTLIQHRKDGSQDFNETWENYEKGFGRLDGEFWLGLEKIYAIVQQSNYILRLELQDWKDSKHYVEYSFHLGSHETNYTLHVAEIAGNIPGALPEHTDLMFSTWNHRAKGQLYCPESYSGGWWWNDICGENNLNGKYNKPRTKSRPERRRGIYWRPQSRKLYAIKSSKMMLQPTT
T4 sequence (looked up) 2: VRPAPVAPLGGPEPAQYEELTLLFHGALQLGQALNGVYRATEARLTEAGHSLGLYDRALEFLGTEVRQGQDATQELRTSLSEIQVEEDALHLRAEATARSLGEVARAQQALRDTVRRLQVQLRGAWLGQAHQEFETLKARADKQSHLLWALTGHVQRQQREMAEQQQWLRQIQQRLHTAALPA

B1: anti-ANGPTL3/8 complex Ab having a LC of SEQ ID NO:5 and a HC of SEQ ID NO:6 (antibody, human IgG4 S228P, kappa, F234A L235A, V domains shown)
VH: QVTLKESGPTLVKPTQTLTLTCTFSGFSLSISGVGVGWIRQPPGKALEWLALIYRNDDKRYSPSLKSRLTITKDTSKNQVVLTLTNMDPVDTATYYCARTYSSGWYGNWFDPWGQGTLVTVSS
VL: DIVMTQTPLSLPVTPGEPASISCRSSQSLLDSDDGNTYLDWYLQKPGQSPQLLIYMLSYRASGVPDRFSGSGSGTDFTLKISRVEAEDVGIYYCMQRIEFPLTFGGGTKVEIKR
notes: In the ELISA assays tested as IgG from CHO supernatants; also called the Ab
B2: Ab with LC variant having a D33A mutation (SEQ ID NO:22) and a HC of SEQ ID NO:6 (antibody, human IgG4 S228P, kappa, F234A L235A, V domains shown)
VH: B1 VH
VL: B1 VL with D33A
notes: also called D33A Variant Ab; D33A Ab
B3: Ab with LC variant having a E99Q mutation (SEQ ID NO:25) and a HC of SEQ ID NO:6 (antibody, human IgG4 S228P, kappa, F234A L235A, V domains shown)
VH: B1 VH
VL: B1 VL with E99Q
notes: also called E99Q Variant Ab; E99Q Ab
B4: Ab with LC variant having a D31S mutation (SEQ ID NO:21) and a HC of SEQ ID NO:6 (antibody, human IgG4 S228P, kappa, F234A L235A, V domains shown)
VH: B1 VH
VL: B1 VL with D31S
notes: also called D31S Variant Ab; D31S Ab

Molecular target: T1, human ANGPTL3
Test: ELISA; Ab captured by anti-human Fc; biotinylated antigen at 3.70 nM
Protocol: (§1) ELISA Assay: Ab binding selectivity to either the ANGPTL3/8 complex, free ANGPTL3 or free ANGPTL8 is verified using standard ELISA assays. […] Ab from CHO supernatants after expression in CHO cells is then captured to the assay plate and results is an Ab concentration of 2 μg/ml. Biotinylated antigen (ANGPTL3, ANGPTL8 or ANGPTL3/8 complex) is added at varying concentrations by serial dilution to allow for Ab/antigen binding. Ab/antigen complexes are detected after the addition of alkaline phosphatase-conjugated neutravidin, and alkaline phosphatase substrate, and subsequent measurement of the optical density at 560 nm.

Binder | OD at 560 nm
B1 | 0.046 OD 560 nm
B2 | 0.056 OD 560 nm
B3 | 0.06 OD 560 nm
B4 | 0.06 OD 560 nm

Molecular target: T2, human ANGPTL8
Test: as above
Protocol: as §1

Binder | OD at 560 nm
B1 | 0.051 OD 560 nm
B2 | 0.048 OD 560 nm
B3 | 0.056 OD 560 nm
B4 | 0.056 OD 560 nm

Molecular target: T3, human ANGPTL3/8 complex
Test: as above
Protocol: as §1

Binder | OD at 560 nm
B1 | 1.04 OD 560 nm
B2 | 1.04 OD 560 nm
B3 | 1.13 OD 560 nm
B4 | 1.13 OD 560 nm

Molecular target: T2, human ANGPTL8
Test: single point ELISA; IgG captured by anti-human Fc; biotinylated antigen at 25 nM
Protocol: Single Point ELISA (SPE) Assay: Ab binding selectivity to either the ANGPTL3/8 complex, free ANGPTL3 or free ANGPTL8 is initially verified using standard ELISA assays in a single point format. […] IgG secreted into supernatants after expression in CHO cells are then captured to the assay plate. Biotinylated antigen is added at a concentration of 25 nM to allow for Ab/antigen binding. Ab/antigen complexes are detected after adding alkaline phosphatase-conjugated neutravidin and alkaline phosphatase substrate, and subsequent measurement of the optical density at 560 nm. Positive binding is determined by a signal greater than 3 fold over the non-binding background signal.

Binder | OD at 560 nm
B1 | 0.087 OD 560 nm
B2 | 0.118 OD 560 nm
B3 | 0.1 OD 560 nm
B4 | 0.072 OD 560 nm

Molecular target: T1, human ANGPTL3
Test: ELISA; Ab captured by anti-human Fc; biotinylated antigen at 0.137 nM
Protocol: as §1

Binder | OD at 560 nm
B1 | 0.048 OD 560 nm
B2 | 0.062 OD 560 nm
B3 | 0.057 OD 560 nm
B4 | 0.057 OD 560 nm

Molecular target: T2, human ANGPTL8
Test: as above
Protocol: as §1

Binder | OD at 560 nm
B1 | 0.047 OD 560 nm
B2 | 0.053 OD 560 nm
B3 | 0.08 OD 560 nm
B4 | 0.08 OD 560 nm

Molecular target: T3, human ANGPTL3/8 complex
Test: as above
Protocol: as §1

Binder | OD at 560 nm
B1 | 0.11 OD 560 nm
B2 | 0.101 OD 560 nm
B3 | 0.137 OD 560 nm
B4 | 0.137 OD 560 nm

Molecular target: T4, mouse ANGPTL3/8 complex
Test: cell-based or functional assay

Binder | % Max Derepression LPL | Ab EC50 (nM), derepression of LPL
B2 | 106% | 4.07 nM
B3 | 110% | 1.65 nM
B4 | 110% | 1.79 nM

Reference: patent US20200199213A1 (Eli Lilly, published 2020)
